Residue numbers refer to the chain shown, from its start. One block for each molecule: values may come before it.
Experiments:
[1] = Glucose-dependent fluorescence emission intensity spectra of conjugates (Nanodrop3300); type: biochemical; conditions: for Type of fluorescence response to glucose: Nanodrop3300
From the text: Semi-synthetic FRSs were engineered by site-specifically attaching thiol-reactive, environmentally sensitive fluorophores that respond to ligand-mediated conformational changes. Identification of FRS candidates that are useful for sensing applications comprises three steps: • 1. Cysteine scan. Mutant glucose-binding proteins containing single cysteines are constructed for site-specific attachment of thiol-reactive fluorophores. […] Candidate positions fall into three classes: endosteric, replacing a residue that contacts the ligand directly; peristeric, located at the rim of the binding site; allosteric (Marvin et al. 1997 Proc Natl Acad Sci USA, 94, 4366-71; Marvin 1998 J Am Chem Soc, 120, 7-11), located outside the binding site at sites that undergo local structural changes in concert with the hinge-bending motion. • 2. Fluorophore screening. Thiol-reactive, environmentally sensitive fluorophores are attached to each cysteine mutant prepared in step 1. • 3. Evaluation of the glucose-mediated change of all the fluorescent conjugates prepared in step 2. Responses to ligand binding in which there is both a change in fluorescence emission intensity and spectral shape was essential for chemometric applications, because such changes enable ratiometric measurements. Changes in spectral shape typically are accompanied by a shift in the wavelength of the emission intensity maxima. Three classes of fluorescent responses are possible: • i. No response. • ii. Monochromatic response (emission intensity increases or decreases without a change in spectral shape) • iii.

[2] = Glucose binding: isothermal fluorescence titrations, ratiometric (appKd) and monochromatic (trueKd) fits; conditions: Acrylodan conjugate, room temperature
From the text: 2 For a single glucose-binding site, the fractional saturation is given by
[formula] where ^apoIλ2 and ^satIλ2 are the emission intensities of the monochromatic signal at wavelength λ2 of the ligand-free and ligand-bound protein, respectively.

[3] = Galactose binding: isothermal fluorescence titrations of conjugates; conditions: Acrylodan conjugate; for S, selectivity = trueKd(galactose)/trueKd(glucose): S > 1, selective for glucose; for Kd: read-out: Galactose trueKd, monochromatic titration curves, room temperature
[4] = Thermostability: mid-point thermal denaturation temperature (Tm) from temperature-dependent fluorescence (Roche LightCycler); type: physicochemical; conditions: Acrylodan conjugate; apo-protein
From the text: Protein (un)folding is monitored by binding of SYPRO to the unfolded state as a function of temperature. Fluorescence intensity increases upon binding of SYPRO by the unfolded state.
Panels A-C: ttGBP182C.2.0-Imm0; Panels D-F: ttGBP182C.2.0-Imm1 (see FIG. 13). (A) Solution (Tm=347.6K). (B) Immobilized on Nickel-nitriloacetic acid (Ni-NTA) beads (Tm=346.7K). (C) Reconstituted, desiccated Ni-NTA beads (Tm=347.6K). (D) Fluorescence response of ttGGBP5.2 Imm1 immobilized on NHS-functionalized agarose beads. Data was collected on a Roche LightCycler real-time PCS instrument, recording emission intensities at 488 nm and 510 nm as a function of temperature in a 384-well microtiter plate. […] Temperature melts of twelve different wells. Apo protein thermostability as reported by the denaturation mid-point temperature is 349 K, similar to the protein free in solution. […] (F) Representative Langmuir ligand-binding curve extracted from the three-dimensional data.
Temperatures were advanced in 1K steps. […] Under these experimental photobleaching was not observed.

[5] = read-out: Glucose appKd, dichromatic ratiometry
[6] = read-out: Glucose trueKd, monochromatic titration curves

Molecule: W183C (Ec)
Type of fluorescence response to glucose ([1]; Acrylodan conjugate of ttGGBP or ecGGBP (Ec) cysteine mutant): r (b) (r (b), ratiometric (bathochromic shift))

Molecule: ecGGBP W183C⋅Acrylodan: Acrylodan attached to W183C mutant of E. coli GGBP (SEQ ID NO: 32)
direction of emission wavelength shift upon glucose binding ([1]; isochromic / hypsochromic / bathochromic): bathochromic

B1: ttGGBP17C.9: affinity-tuning mutant, 17C background, SEQ ID NO: 74 (protein)
chain: MKQLNIGVAIYKFDDSCMTGVRNAMTAEAQGKAKLNMVDSQNSQPTQNDQVDLFITKKMNALAINPVDRTAAGTIIDKAKQANIPVVFFNREPLPEDMKKWDKVYYVGAKAEQSGILQGQIMADYWKAHPEADKNHDGVMQYVMLMGQPGHQDAILRTQYSIQTVKDAGIKVQELAKDYANWDRVTAHDKMAAWLSSFGDKIEAVFANNDDMALGAIEALKSAGYFTGNKYIPVVGVDATAPGIQAIKDGTLLGTVLNDAKNQAKATFNIAYELAQGITPTKDNIGYDITDGKYVWIPYKKITKDNISDAEQGGSHHHHHH
modifications: ttGGBP17C.9 (affinity-tuning mutant, 17C background (Table 6) with signal peptide replaced with M and GGSHHHHHH at C-terminus)
Kd [2, 5]: 0.2 mM
Kd [2, 6]: 0.2 mM
Type of fluorescence response to glucose ([1]; Acrylodan conjugate of ttGGBP.17C mutant): r(h) (r(h), ratiometric (hypsochromic shift))

B5: ttGGBP182C.2.6: affinity-tuning mutant, 182C background, SEQ ID NO: 93 (protein)
chain: B1 chain with S16T, C17F, R91K, Q148E, H151N, W182C
modifications: ttGGBP182C.2.6 (affinity-tuning mutant, 182C background (Table 6) with signal peptide replaced with M and GGSHHHHHH at C-terminus)
Kd [2, 5]: 19.2 mM
Kd [2, 6]: 17.9 mM
S, selectivity = trueKd(galactose)/trueKd(glucose) [3]: 2.9
Kd [3]: 52.6 mM
apoTm [4]: 347 K

B7: ttGGBP182C.4: affinity-tuning mutant, 182C background, SEQ ID NO: 98 (protein)
chain: B1 chain with S16T, C17F, Q148E, W182C
modifications: ttGGBP182C.4 (affinity-tuning mutant, 182C background (Table 6) with signal peptide replaced with M and GGSHHHHHH at C-terminus)
Kd [2, 5]: 0.6 mM
Kd [2, 6]: 0.8 mM
S, selectivity = trueKd(galactose)/trueKd(glucose) [3]: 8.1
Kd [3]: 6.5 mM
apoTm [4]: 347 K

B10: ttGGBP182C.8: affinity-tuning mutant, 182C background, SEQ ID NO: 102 (protein)
chain: B1 chain with S16T, C17F, R91K, Q148K, W182C
modifications: ttGGBP182C.8 (affinity-tuning mutant, 182C background (Table 6) with signal peptide replaced with M and GGSHHHHHH at C-terminus)
Kd [2, 5]: 28.7 mM
Kd [2, 6]: 44.2 mM
S, selectivity = trueKd(galactose)/trueKd(glucose) [3]: 5.8
apoTm [4]: 346 K

B11: ttGGBP182C.9: affinity-tuning mutant, 182C background, SEQ ID NO: 103 (protein)
chain: B1 chain with D15N, S16T, C17F, W182C
modifications: ttGGBP182C.9 (affinity-tuning mutant, 182C background (Table 6) with signal peptide replaced with M and GGSHHHHHH at C-terminus)
Kd [2, 5]: 75.1 mM
Kd [2, 6]: 76.4 mM
S, selectivity = trueKd(galactose)/trueKd(glucose) [3]: 3.7
apoTm [4]: 343 K

More lines, in order of falling Kd [2, 6], values ahead:

Kd [2, 5]: 21.6 mM
Kd [2, 6]: 27.6 mM
S, selectivity = trueKd(galactose)/trueKd(glucose) [3]: 2.9
Kd [3]: 81 mM
B9: ttGGBP182C.6: affinity-tuning mutant, 182C background, SEQ ID NO: 100 (protein)
chain: B1 chain with S16N, C17F, W182C, D211A
modifications: ttGGBP182C.6 (affinity-tuning mutant, 182C background (Table 6) with signal peptide replaced with M and GGSHHHHHH at C-terminus)
apoTm [4]: 345 K

Kd [2, 5]: 16.3 mM
Kd [2, 6]: 19 mM
S, selectivity = trueKd(galactose)/trueKd(glucose) [3]: 10.9
B3: ttGGBP182C.2.3: affinity-tuning mutant, 182C background, SEQ ID NO: 90 (protein)
chain: B1 chain with S16T, C17F, R91K, Q148E, A154N, W182C
modifications: ttGGBP182C.2.3 (affinity-tuning mutant, 182C background (Table 6) with signal peptide replaced with M and GGSHHHHHH at C-terminus)
apoTm [4]: 346 K

Kd [2, 5]: 10.8 mM
Kd [2, 6]: 13 mM
S, selectivity = trueKd(galactose)/trueKd(glucose) [3]: 1.6
Kd [3]: 20.3 mM
B4: ttGGBP182C.2.5: affinity-tuning mutant, 182C background, SEQ ID NO: 92 (protein)
chain: B1 chain with S16T, C17F, R91K, Q148E, H151Q, W182C
modifications: ttGGBP182C.2.5 (affinity-tuning mutant, 182C background (Table 6) with signal peptide replaced with M and GGSHHHHHH at C-terminus)
apoTm [4]: 346 K

Kd [2, 5]: 7.5 mM
Kd [2, 6]: 8.8 mM
S, selectivity = trueKd(galactose)/trueKd(glucose) [3]: 0.8
Kd [3]: 7.4 mM
B8: ttGGBP182C.5: affinity-tuning mutant, 182C background, SEQ ID NO: 99 (protein)
chain: B1 chain with S16T, C17F, R69P, Q152P, W182C
modifications: ttGGBP182C.5 (affinity-tuning mutant, 182C background (Table 6) with signal peptide replaced with M and GGSHHHHHH at C-terminus)
apoTm [4]: 349 K

Kd [2, 5]: 3 mM
Kd [2, 6]: 4.1 mM
S, selectivity = trueKd(galactose)/trueKd(glucose) [3]: 3.2
Kd [3]: 13.1 mM
B2: ttGGBP182C.2.1: affinity-tuning mutant, 182C background, SEQ ID NO: 89 (protein)
chain: B1 chain with S16T, C17F, R91K, Q148E, A154S, W182C
modifications: ttGGBP182C.2.1 (affinity-tuning mutant, 182C background (Table 6) with signal peptide replaced with M and GGSHHHHHH at C-terminus)
apoTm [4]: 328 K

Kd [2, 6]: 0.9 mM
Kd [3]: 3.1 mM
B6: ttGGBP182C.3: affinity-tuning mutant, 182C background, SEQ ID NO: 97 (protein)
chain: B1 chain with S16T, C17F, R91K, W182C
modifications: ttGGBP182C.3 (affinity-tuning mutant, 182C background (Table 6) with signal peptide replaced with M and GGSHHHHHH at C-terminus)
apoTm [4]: 346 K

Source: patent US11156615B2 (priority 2015, dated 2021)
